The source of these data is article PMC12441935, “De novo designed 3-helix bundle peptides and proteins with controlled topology and stability” (Chemical Science, 2025).

The data set deals with the molecule itself. In words: AUC; sedimentation velocity and sedimentation equilibrium of the individual peptides N and N′, 20 °C.

B1: apCCTri-N (peptide)
chain: KLAALEKKLAALEKKTAALEYKLAAL
In general, stoichiometry N refers to a count of units in the complex or per binding partner. In the case of B1, the “stoichiometry N” value was determined as 3.

B2: apCCTri-N′ (peptide)
chain: ELAALKEELAALKEETAALKYELAAL
On to B2, for which the “stoichiometry N” value was determined as 3.
